Data published in patent publication US20250282852A1.

Tests used:
[1] = target: biotinylated oligomeric Aβ1-42 (UniProt P05067); test: Octet biolayer interferometry, biotinylated oligomeric Aβ on streptavidin biosensor, hCD22-His in solution
[2] = target: biotinylated oligomeric Aβ1-42 (UniProt P05067); test: Octet 96e (printed as 'SPR system'), biotinylated oligomeric Aβ1-42 on streptavidin biosensor, CD22 extracellular domain at various concentrations in solution

koff [1]: 0.000522 s⁻¹ | kon [1]: 186000 M⁻¹ s⁻¹ | Kd [2]: 2.79 nM
Substance: extracellular domain of CD22 (Sino Biological) (receptor)
